Test results published in the RNAGym collection of RNA variant scans (doi:10.7554/elife.90254).

B1: LINE1-mini (parent)
chain: GGCAGAGCUCAACACAGCGUGGCAAAGUGGCUGUGGCUAGACUGCC

Variants of: B1
Assay: self-cleavage, relative activity (ratio to wild type); higher = more cleavage; in vitro, sequencing; the parent is a self-cleaving ribozyme

Row | Variant | self-cleavage
1 | GGCAGAGCUCAACUCAGCGUGGCAAAGUGGCUGUGGCUAGAUUGCC [A14U C42U] | 0.2
2 | GGCAGAGCUUAACACAGCGUGGCAAAGUGGCUGUAGCUAGACUGCC [C10U G35A] | 0.08
3 | GGCAGAGCUCAACACAGUGUGGCAAAGUGGCUGUGGCUACACUGCC [C18U G40C] | 0.04
4 | GGCACUGCUCAACACAGCGUGGCAAAGUGGCUGUGGCUAGACUGCC [G5C A6U] | 0.06
5 | GGCAGAGCUCAACACAGCGUGGCAGAGUGGCUUUGGCUAGACUGCC [A25G G33U] | 0.05
6 | GGCAGAGCUCAACACAGCGUGGCAAUGAGGCUGUGGCUAGACUGCC [A26U U28A] | 0.88
7 | GGCAGAGCUCAACAUAGCGUGGCAAAGUGGCUGUAGCUAGACUGCC [C15U G35A] | 0.09
8 | CGCUGAGCUCAACACAGCGUGGCAAAGUGGCUGUGGCUAGACUGCC [G1C A4U] | 0.06
9 | GGCAGAGCUCAACACAGCGUGGCAAAGUGGCUGUGUCUACACUGCC [G36U G40C] | 0.09
10 | GGCAGAGCUCAACACAGCGUGGCAAAGUGGCUGUAGCUAGAGUGCC [G35A C42G] | 0.04
11 | GGCAGAGCUCAACACAGCGGGGCAAAGUGGCUGUGCCUAGACUGCC [U20G G36C] | 0.09
12 | GGCAGAGCUCAACACAGCGUAGCAAAGUGGCUGUGGCUAGAGUGCC [G21A C42G] | 0.06
13 | GGCAGAGAUCAACACAGCGUGGCAAUGUGGCUGUGGCUAGACUGCC [C8A A26U] | 0.3
14 | GGCAGAGCUCAACACAGCGUGGCAAAGUGGCUGUGGCUAUACUGAC [G40U C45A] | 0.09
15 | GGCAGUGCUCAACACAGCGUGGCGAAGUGGCUGUGGCUAGACUGCC [A6U A24G] | 0.94
16 | GGCAGAGCUCAACACAGCGUGGCAAAGUGGCCGUGGCUAGAGUGCC [U32C C42G] | 0.1
17 | GGCAGAGCUCAACACAGCGUGGCAAAGUGGCUGUGUCUAGCCUGCC [G36U A41C] | 0.05
18 | GGCAGAGCUCAACACAGCGUGGCGAAGUGCCUGUGGCUAGACUGCC [A24G G30C] | 1.12
19 | GGCAGAGCUCAACGCAGCCUGGCAAAGUGGCUGUGGCUAGACUGCC [A14G G19C] | 0.25

Row | Variant | self-cleavage
20 | GGCAGAGCUCAACACAGCGUGACAAAGUGGCUGUGGCAAGACUGCC [G22A U38A] | 0.33
21 | GGCAGAGCUCAACACAGCCUGGGAAAGUGGCUGUGGCUAGACUGCC [G19C C23G] | 0.42
22 | GGCAGAGCUCAACACACCGUGGCAAAGUCGCUGUGGCUAGACUGCC [G17C G29C] | 0.34
23 | GGCAGACCUCAACAAAGCGUGGCAAAGUGGCUGUGGCUAGACUGCC [G7C C15A] | 0.14
24 | GGCAGAGCUCAAAACAGCGUGGCAAAGUGGCUGUGGCUAGACCGCC [C13A U43C] | 0.08
25 | GGCAGAGCUCAACACAGCGUCGCAAAGUGGCUGUGGUUAGACUGCC [G21C C37U] | 0.01
26 | GGAAGAGCUCAACACGGCGUGGCAAAGUGGCUGUGGCUAGACUGCC [C3A A16G] | 0.22
27 | GGCAGAGCUGAACACAGCGUGGCAAAGUGGCUGUGACUAGACUGCC [C10G G36A] | 0.01
28 | GGCAGAGCUCAACACAGCGUGGCAAAGUGGCCGUGGCUAGACCGCC [U32C U43C] | 0.05
29 | GGCAGAGCUCAACACAGGGUAGCAAAGUGGCUGUGGCUAGACUGCC [C18G G21A] | 0.77
30 | GGCAGAGCUCAACACAGCGUGGCUAAGUGGCUGUGGCUAGACUGCG [A24U C46G] | 1.03
31 | GGCAGAGCUCAACACAGCGUGGCUAAGUGGCUGUGGCUAUACUGCC [A24U G40U] | 0.19
32 | GGCAGAGCUCAACACCGCGUGGCAAAGUGGCUGCGGCUAGACUGCC [A16C U34C] | 0.07
33 | GGCAGAGCUCAACACAGCGUGGCAAAGUGGCUGUGGCUAGAGUUCC [C42G G44U] | 0.06
34 | GGCAGAGCCCAACACAGCGUGGCAAAGUGGCGGUGGCUAGACUGCC [U9C U32G] | 0.03
35 | GGCAGAGCUCAACACAGAGUGGCAAAGUGGGUGUGGCUAGACUGCC [C18A C31G] | 0.04
36 | GGCAGAGCUCAACACAGCGUGGCAAACUGGCUGUGGCUAGACUGUC [G27C C45U] | 2.02
37 | GGCAGAGCUCAACACAGCGUGGCAAAGUGGCUGGUGCUAGACUGCC [U34G G35U] | 0.07
38 | GGCAGAGCUCAACACAGCGUGGCACAGUGGCUGGGGCUAGACUGCC [A25C U34G] | 0.06

Row | Variant | self-cleavage
39 | GGCAGAGCUCAACACAGCGUGGCAAAGUGGGUGUCGCUAGACUGCC [C31G G35C] | 0.05
40 | GGCAGAGCUCAACACAGCCUGGCAAAGUGGCUGUCGCUAGACUGCC [G19C G35C] | 0.17
41 | GGCAGAGCUGAACGCAGCGUGGCAAAGUGGCUGUGGCUAGACUGCC [C10G A14G] | 0.09
42 | GGCAGAGCUCAACACAGCGUGGCAAAGUGGAAGUGGCUAGACUGCC [C31A U32A] | 0.05
43 | GGCAGAGCUCAACACAGCUUAGCAAAGUGGCUGUGGCUAGACUGCC [G19U G21A] | 0.64
44 | UGCAGAGCUCAACACAGAGUGGCAAAGUGGCUGUGGCUAGACUGCC [G1U C18A] | 0.16
45 | GGCAGAGCUCUACACAGCGUGGCAAAGUGGCUGUGGCUAGACUCCC [A11U G44C] | 0.03
46 | GGCGGAGCUCAACACAUCGUGGCAAAGUGGCUGUGGCUAGACUGCC [A4G G17U] | 0.18
47 | GGCAGAGCUGAACACAGCGUGGCAAAGUGGCUGUGGCUAGACAGCC [C10G U43A] | 0.01
48 | GGCAGAGCUCAACACAGCGUGGCAAAGUGGCUGUCGCUACACUGCC [G35C G40C] | 0.08
49 | GGCAGAGCUCAACACGGCGUGGCAAAGUGGAUGUGGCUAGACUGCC [A16G C31A] | 0.03
50 | GUCAGAGCUCAACACAGCGAGGCAAAGUGGCUGUGGCUAGACUGCC [G2U U20A] | 0.07
51 | GGCAUAGCUCAACACAGCGUGGCAAAGGGGCUGUGGCUAGACUGCC [G5U U28G] | 0.09
52 | GGCAGAGCACAACACAGCGUGGCAAAGUGGUUGUGGCUAGACUGCC [U9A C31U] | 0.04
53 | GGCAGAGGUCAACACAGCGUGGCAAAGUGGCUGUGGCUAGACUCCC [C8G G44C] | 0.05
54 | GGCAGAGCUCAACACAGCGGGGCAAAGUGGCUGUGGCUAGGCUGCC [U20G A41G] | 0.19
55 | GGCAGAGUUCAACACAGCGUGGCAAAGUUGCUGUGGCUAGACUGCC [C8U G29U] | 0.46
56 | GGCCGAGCUCAACACAGCGUGGCAUAGUGGCUGUGGCUAGACUGCC [A4C A25U] | 0.13
